Source: the supplement of paper PMC6757056
± gives the standard deviation of the averaged measurements.

B1: library; a variant is named by its letters at N, in order (parent)
chain: GCUGUCACCGAGAAACUGUGAAGUAUAUCUUAAACCUGGGCACUUAAAAGAUAUAUGGAGUUAGUAGUGCAACCUGCUCGGUCUGAUGAGUCCNNNNNNGGACGAAACAGC

Key:
[1] = variants of: B1; test: normalized RNA/DNA level without ligand (relative to sTRSVctl = 100) (log10 (% of sTRSVctl)); HEK293T; ligand: cyclic di-GMP (c-di-GMP-II aptamer); higher = less ribozyme self-cleavage, higher mRNA level; conditions: reporter: mCherry (pCS4076), ligand present: no
How it was run: (§1)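 Library plasmids encoding reporter-linked ribozyme switches (mCherry, or eGFP for some folinic acid experiments) were transfected into HEK293T at 4 µg per 6-well well. Ligand, when used, was added 1 h before transfection. Total RNA was extracted with EDTA 72 h later, then reverse-transcribed, amplified, barcoded and sequenced. RNA level was RNA reads over DNA reads, divided by a spiked-in non-cleaving control (or the top 25 sequences), ×100, log10; only sequences with ≥100 DNA reads were kept.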

[2] = variants of: B1; test: normalized RNA/DNA level with ligand (relative to sTRSVctl = 100) (log10 (% of sTRSVctl)); HEK293T; ligand: cyclic di-GMP (c-di-GMP-II aptamer); ligand concentration (+) RNA-Seq: 1 mM; higher = less ribozyme self-cleavage, higher mRNA level; conditions: reporter: mCherry (pCS4076), ligand present: yes
How it was run: as §1

Row | Variant | normalized RNA/DNA level without ligand (log10) [1] | normalized RNA/DNA level with ligand (log10) [2]
1 | AUGUCA | 1.59 ± 0.072 | 1.78 ± 0.066
2 | CAUUGA | 1.602 ± 0.0057 | 1.76 ± 0.13
3 | AUAUCA | 1.63 ± 0.032 | 1.79 ± 0.12
4 | ACGGAC | 1.52 ± 0.075 | 1.73 ± 0.09
5 | CACGCC | 1.81 ± 0.044 | 1.86 ± 0.022
6 | UCUUCA | 1.75 ± 0.057 | 1.8 ± 0.1
7 | AAGUCC | 1.76 ± 0.051 | 1.84 ± 0.085
8 | AGGACU | 1.66 ± 0.014 | 1.82 ± 0.088
9 | UAAUCA | 1.756 ± 0.0092 | 1.87 ± 0.072
10 | CGCUGG | 1.67 ± 0.039 | 1.78 ± 0.086
11 | AUUUCC | 1.79 ± 0.019 | 1.9 ± 0.092
12 | GAGCUA | 1.79 ± 0.038 | 1.88 ± 0.11
13 | UUUUUA | 1.77 ± 0.038 | 1.92 ± 0.11
14 | CGGUCG | 1.78 ± 0.042 | 1.9 ± 0.13
15 | GCUAUC | 1.53 ± 0.045 | 1.66 ± 0.13
16 | AUGGUC | 1.67 ± 0.018 | 1.81 ± 0.1
17 | CGUAGU | 1.69 ± 0.041 | 1.82 ± 0.13
18 | AACUUG | 1.66 ± 0.051 | 1.85 ± 0.11
19 | AGUCGA | 1.71 ± 0.036 | 1.84 ± 0.081
20 | GGUAAA | 1.441 ± 0.0091 | 1.62 ± 0.13
21 | CUUGCC | 1.82 ± 0.019 | 1.9 ± 0.077
22 | GGUUUC | 1.8 ± 0.12 | 1.86 ± 0.12
23 | CAUUAC | 1.6236 ± 0.00067 | 1.79 ± 0.13

Row | Variant | normalized RNA/DNA level without ligand (log10) [1] | normalized RNA/DNA level with ligand (log10) [2]
24 | AGCUUU | 1.712 ± 0.0062 | 1.85 ± 0.12
25 | CAACUU | 1.49 ± 0.093 | 1.69 ± 0.078
26 | AAUGCA | 1.666 ± 0.0048 | 1.78 ± 0.14
27 | UUAUAA | 1.6409 ± 0.0011 | 1.81 ± 0.13
28 | UUAUCG | 1.783 ± 0.014 | 1.86 ± 0.14
29 | UCGCCG | 1.81 ± 0.091 | 1.95 ± 0.14
30 | UGUGUG | 1.69 ± 0.053 | 1.86 ± 0.056
31 | UGAAUG | 1.72 ± 0.037 | 1.86 ± 0.12
32 | CCUUCC | 1.779 ± 0.0029 | 1.87 ± 0.12
33 | AACCAG | 1.6 ± 0.035 | 1.73 ± 0.13
34 | UAGGUA | 1.55 ± 0.018 | 1.72 ± 0.05
35 | AACAGG | 1.5 ± 0.036 | 1.66 ± 0.14
36 | ACGCUU | 1.37 ± 0.076 | 1.6 ± 0.17
37 | ACGCUG | 1.62 ± 0.039 | 1.79 ± 0.089
38 | UUCCCU | 1.766 ± 0.012 | 1.89 ± 0.048
39 | UUAACC | 1.78 ± 0.073 | 1.85 ± 0.14
40 | CCUGGG | 1.72 ± 0.018 | 1.82 ± 0.18
41 | GCAGCA | 1.82 ± 0.022 | 1.89 ± 0.092
42 | ACACGU | 1.62 ± 0.043 | 1.83 ± 0.081
43 | UGCCGG | 1.75 ± 0.04 | 1.86 ± 0.039
44 | UUGCAC | 1.75 ± 0.024 | 1.85 ± 0.11
45 | UUUUGG | 1.82 ± 0.05 | 1.93 ± 0.13
46 | GGUGUA | 1.6 ± 0.14 | 1.76 ± 0.14

Row | Variant | normalized RNA/DNA level without ligand (log10) [1] | normalized RNA/DNA level with ligand (log10) [2]
47 | AGGUGC | 1.75 ± 0.037 | 1.82 ± 0.11
48 | GAAAGC | 1.59 ± 0.029 | 1.72 ± 0.068
49 | UUUUAU | 1.7 ± 0.025 | 1.87 ± 0.095
50 | UUUAUA | 1.7 ± 0.035 | 1.84 ± 0.1
51 | UUACUC | 1.747 ± 0.0026 | 1.84 ± 0.093
52 | CCAAUC | 1.55 ± 0.1 | 1.71 ± 0.1
53 | GUAAGU | 1.65 ± 0.033 | 1.77 ± 0.061
54 | CCUUGG | 1.76 ± 0.081 | 1.9 ± 0.15
55 | CCUUGA | 1.63 ± 0.029 | 1.83 ± 0.095
56 | UCGGAC | 1.66 ± 0.029 | 1.8 ± 0.13
57 | UAUUCG | 1.756 ± 0.0047 | 1.87 ± 0.13
58 | UCCCUA | 1.696 ± 0.014 | 1.84 ± 0.092
59 | CUCUUC | 1.73 ± 0.052 | 1.87 ± 0.082
60 | UGUGAA | 1.658 ± 0.012 | 1.85 ± 0.078
61 | UAAUGG | 1.676 ± 0.013 | 1.81 ± 0.087
62 | CGAAUG | 1.66 ± 0.019 | 1.85 ± 0.047
63 | GCCUGG | 1.78 ± 0.061 | 1.91 ± 0.09
64 | GUAUCU | 1.68 ± 0.038 | 1.82 ± 0.084
65 | AUCAUG | 1.62 ± 0.019 | 1.78 ± 0.11
66 | UGGAGG | 1.699 ± 0.0024 | 1.84 ± 0.14
67 | GAGGUA | 1.698 ± 0.0042 | 1.77 ± 0.1
68 | AAGGCA | 1.63 ± 0.05 | 1.71 ± 0.096
69 | GUACAC | 1.67 ± 0.03 | 1.79 ± 0.1

Row | Variant | normalized RNA/DNA level without ligand (log10) [1] | normalized RNA/DNA level with ligand (log10) [2]
70 | CAAGCG | 1.74 ± 0.052 | 1.85 ± 0.11
71 | CAAGCA | 1.63 ± 0.035 | 1.76 ± 0.11
72 | CUCGCA | 1.66 ± 0.047 | 1.81 ± 0.14
73 | AGUGUG | 1.57 ± 0.084 | 1.71 ± 0.13
74 | GGUCCG | 1.9 ± 0.057 | 1.96 ± 0.13
75 | UCCUGG | 1.82 ± 0.057 | 1.91 ± 0.14
76 | ACGUGC | 1.59 ± 0.036 | 1.8 ± 0.065
77 | UUAAAA | 1.645 ± 0.0029 | 1.8 ± 0.066
78 | CCGCGG | 1.73 ± 0.044 | 1.85 ± 0.056
79 | AAGUUC | 1.6603 ± 0.0013 | 1.84 ± 0.11
80 | AAGUUU | 1.724 ± 0.0032 | 1.88 ± 0.076
81 | CUGCUG | 1.63 ± 0.055 | 1.79 ± 0.11
82 | AAUCGC | 1.74 ± 0.018 | 1.89 ± 0.12
83 | UGCUUC | 1.766 ± 0.017 | 1.89 ± 0.093
84 | AGGGCG | 1.78 ± 0.0082 | 1.84 ± 0.11
85 | UGGCUC | 1.78 ± 0.047 | 1.92 ± 0.077
86 | AAAUCG | 1.54 ± 0.12 | 1.73 ± 0.061
87 | UACGCG | 1.81 ± 0.04 | 1.9 ± 0.11
88 | UUCAGU | 1.75 ± 0.023 | 1.89 ± 0.069
89 | CCCACA | 1.57 ± 0.098 | 1.74 ± 0.05
90 | CUUGUA | 1.57 ± 0.044 | 1.77 ± 0.12
91 | CUAAAC | 1.7 ± 0.018 | 1.79 ± 0.095
92 | GGGUAA | 1.61 ± 0.091 | 1.7 ± 0.12

Row | Variant | normalized RNA/DNA level without ligand (log10) [1] | normalized RNA/DNA level with ligand (log10) [2]
93 | UAGUGC | 1.69 ± 0.024 | 1.82 ± 0.13
94 | CUGGUG | 1.39 ± 0.017 | 1.58 ± 0.16
95 | GCCCGC | 1.76 ± 0.04 | 1.86 ± 0.15
96 | CCACAC | 1.65 ± 0.037 | 1.79 ± 0.073
97 | GUAUGG | 1.53 ± 0.16 | 1.7 ± 0.042
98 | GUAUGC | 1.56 ± 0.065 | 1.75 ± 0.084
99 | CGACUU | 1.44 ± 0.089 | 1.63 ± 0.12
100 | GAGAGU | 1.65 ± 0.0094 | 1.8 ± 0.1
101 | GAGAGC | 1.71 ± 0.02 | 1.85 ± 0.12
102 | GAGAGG | 1.746 ± 0.016 | 1.82 ± 0.11
103 | UAUAGG | 1.68 ± 0.023 | 1.85 ± 0.11
104 | CGAGUC | 1.76 ± 0.065 | 1.88 ± 0.12
105 | UUCUUC | 1.78 ± 0.05 | 1.89 ± 0.16
106 | CAACGU | 1.67 ± 0.025 | 1.82 ± 0.096
107 | UCCGUA | 1.51 ± 0.1 | 1.7 ± 0.084
108 | UUCAAG | 1.689 ± 0.0038 | 1.82 ± 0.086
109 | AUGGCG | 1.69 ± 0.039 | 1.83 ± 0.053
110 | GCGUUA | 1.54 ± 0.054 | 1.75 ± 0.11
111 | CGUUGC | 1.78 ± 0.027 | 1.88 ± 0.071
112 | GCCUAG | 1.74 ± 0.068 | 1.86 ± 0.16
113 | UAAGGU | 1.579 ± 0.013 | 1.77 ± 0.073
114 | UGUCUG | 1.736 ± 0.0044 | 1.88 ± 0.08
115 | GAUGAG | 1.55 ± 0.067 | 1.71 ± 0.059
